Target: T1, cyclophilin B (GenBank Accession No. M60857) (UniProt P23284 34-216, limits assumed)
T1 construct: Yeast two-hybrid fusion; also called CYC-B
Experiment: yeast matrix mating test (two-hybrid), growth on selective medium
Description: Briefly, cells were grown until mid-to-late log phase on media that selected for the presence of the appropriate plasmids. The two mating strains, alpha and a, were then, diluted in YAPD media, filtered onto nitrocellulose membranes, and incubated at 30 degrees Celsius for 6-8 hours. The cells were then transferred to media selective for the desired diploids, i.e., yeast harboring reporter genes for beta-galactosidase, uracil auxotrophy, and histidine auxotrophy, and expression of the vectors encoding the bait and prey. The mating products were plated on SC (synthetic complete) (Sambrook et al., 1989, A Laboratory Manual, 2nd Ed., Cold Spring Harbor Press, New York) media lacking adenine and lysine (to select for successful mating), leucine and tryptophan (to select for expression of genes encoded by both plasmids), and uracil and histidine (to select for protein interactions). This medium is herein referred to as SCS medium, for SC Selective medium.
To test for the specificity of p27(Kip1):FKBP-12 interaction, two general tests were first performed. In the first instance, YULH cells expressing FKBP-12 were created and plated on SC (synthetic complete) −Ura plates, grown for 1-2 days, and examined for growth. […]

T1 sequence (P23284 34-216 limits assumed, one chain of several): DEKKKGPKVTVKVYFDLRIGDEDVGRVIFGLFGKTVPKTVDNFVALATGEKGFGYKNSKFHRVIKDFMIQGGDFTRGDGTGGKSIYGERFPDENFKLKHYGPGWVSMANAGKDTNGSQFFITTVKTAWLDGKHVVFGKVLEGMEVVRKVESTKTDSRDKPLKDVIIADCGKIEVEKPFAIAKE

B1: p27(Kip1) (other)
chain: RDLEKHCRDMEEASQRKWNFDFQNHKPLEGKYEWQEVEKGSLPEFYYRPPRPPKGACKVPAQESQDVSGSRPAAPLIGAPANSEDTHLVDPKTDPSDSQTGLAEQCAGIRKRPATDDSSTQNKRANRTEENVSDGSPNAGSVEQTPKKPGLRRRQT
notes: Yeast two-hybrid fusion expressed in yeast; also called p27(Kip1) bait
B1: no binding.

— patent US20030023034A1 (published 2003)
